From publication doi:10.1101/2022.02.13.480285

Target: SiaM (M-subunit of Photobacterium profundum SiaQM) (Photobacterium profundum)
Assay: AUC

## SiaQ (Q-subunit of Photobacterium profundum SiaQM) (natural protein)
  stoichiometry N (SiaQ per SiaM): 1
